± gives the uncertainty stated by the source.
Assay: self-splicing fitness, log relative to wild type (ln ratio); higher = more splicing; Tetrahymena group I intron in knt gene, E. coli kanamycin selection, DiMSum; sequences stand for … in CUCUCU…GGAGGGAAAAGUUAUCAGGCAUGCACCUGGUAGCUAGUCUUUAAACCAAUAGAUUGCAUCGGUUUAAAAGGCAAGACCGUCAAAUUGCGGGAAAGGGGUCAACAGCCGUUCAGUACCAAGUCUCAGGGGAAACUUUGAGAUGGCCUUGCAAAGGGUAUGGUAAUAAGCUGACGGACAUGGUCCUAACCACGCAGCCAAGUCCUAAGUCAACAGAUCUUCUGUUGAUAUGGAUGCAGUUCACAGACUAAAUGUCGGUCGGGGAAGAUGUAUUCUUCUCAUAAGAUAUAGUCGGACCUCUCCUUAAUGGGAGCUAGCGGAUGAAGUGAUGCAACACUGGAGCCGCUGGGAACUAAUUUGUAUGCGAAAGUAUAUUGAUUAGUUUUGGAGUACUCGUGGUCG
Procedure, shortened: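 Fitness was computed with DiMSum as the error-weighted combination of replicate fold changes, kanamycin versus none, each normalised to wild type. The library randomised all eight intron nucleotides of the P1ex region, with the intron placed in the knt kanamycin-resistance gene on pET-22b(+) in E. coli BL21(DE3). Six replicate transformations were grown overnight at 37°C or 30°C on LB agar with or without 25 μg/mL kanamycin, plus 100 μg/mL carbenicillin, 50 μM IPTG and 0.2% rhamnose. Pooled colonies were amplicon-sequenced on an Illumina HiSeq 2500.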

Row | Sequence | self-splicing fitness (ln) (30 °C) | self-splicing fitness (ln) (37 °C)
1 | AAACAGCAAUAUUACGUGUA | -2.6 ± 0.1 | -1.41 ± 0.089
2 | GACAAGCAAUAUUACGGUGC | -2.77 ± 0.21 | -1.63 ± 0.24
3 | GCAAAGCAAUAUUACGCUUA | -2.59 ± 0.15 | -1.46 ± 0.12
4 | AUCUAGCAAUAUUACGUACG | -2.01 ± 0.23 | -1.04 ± 0.2
5 | GCCUAGCAAUAUUACGCCCA | -2.69 ± 0.25 | -0.792 ± 0.2
6 | AUUGAGCAAUAUUACGACGC | -2.27 ± 0.22 | -2.35 ± 0.28
7 | ACACAGCAAUAUUACGAUUA | -1.66 ± 0.087 | -0.929 ± 0.07
8 | UACCAGCAAUAUUACGGACG | -0.177 ± 0.055 | 0.479 ± 0.088
9 | ACGUAGCAAUAUUACGUUAA | -3.53 ± 0.25 | -2.58 ± 0.2
10 | UGCCAGCAAUAUUACGUACA | -0.269 ± 0.076 | 0.081 ± 0.089
11 | UUUCAGCAAUAUUACGGCUC | -1.77 ± 0.42 | 0.0864 ± 0.23
12 | GGUUAGCAAUAUUACGCGUG | -0.908 ± 0.051 | -0.592 ± 0.063
13 | UAUGAGCAAUAUUACGCUGA | -2.75 ± 0.33 | -1.13 ± 0.3
14 | GUGGAGCAAUAUUACGUAGG | -3.17 ± 0.29 | -0.82 ± 0.24
15 | GGUCAGCAAUAUUACGAUAA | 0.11 ± 0.092 | 0.447 ± 0.15
16 | GCAAAGCAAUAUUACGACAG | -3.2 ± 0.18 | -2.68 ± 0.23
17 | CGGCAGCAAUAUUACGGGGU | -3.58 ± 0.19 | -3.28 ± 0.31
18 | CGCCAGCAAUAUUACGAUUU | -2.75 ± 0.19 | -2.62 ± 0.2
19 | GAAGAGCAAUAUUACGCCAC | -3.28 ± 0.41 | -2.48 ± 0.41
20 | UUGGAGCAAUAUUACGCAAG | -1.51 ± 0.22 | -2.65 ± 0.44
21 | AACCAGCAAUAUUACGCUAA | -1.36 ± 0.068 | -0.61 ± 0.07
22 | CUGAAGCAAUAUUACGACUC | -1.82 ± 0.22 | 
23 | UUUAAGCAAUAUUACGGGAG | -1.75 ± 0.089 | -1.32 ± 0.1
24 | ACCCAGCAAUAUUACGAAAC | -2.77 ± 0.12 | -1.04 ± 0.15
25 | UACCAGCAAUAUUACGCUAU | -2.45 ± 0.11 | -0.409 ± 0.089

Row | Sequence | self-splicing fitness (ln) (30 °C) | self-splicing fitness (ln) (37 °C)
26 | AAACAGCAAUAUUACGUCUA | -1.21 ± 0.065 | -0.311 ± 0.07
27 | CCCGAGCAAUAUUACGAGUA | -3.01 ± 0.16 | -2.37 ± 0.14
28 | CCCAAGCAAUAUUACGGUCG | -2.3 ± 0.094 | -0.827 ± 0.094
29 | AAAUAGCAAUAUUACGACAA | -0.727 ± 0.1 | -0.284 ± 0.1
30 | GGGGAGCAAUAUUACGACGU | -0.89 ± 0.12 | -0.094 ± 0.15
31 | UCGAAGCAAUAUUACGUAAU | -3.88 ± 0.15 | -1.62 ± 0.12
32 | GUGCAGCAAUAUUACGACGA | -0.272 ± 0.15 | 0.701 ± 0.14
33 | AAAGAGCAAUAUUACGUAUU | -3.03 ± 0.2 | -1.2 ± 0.14
34 | CACAAGCAAUAUUACGUUAG | -1.37 ± 0.052 | -0.63 ± 0.062
35 | ACGAAGCAAUAUUACGUUCC | -2.97 ± 0.2 | -1.29 ± 0.16
36 | ACAGAGCAAUAUUACGGUAA | -3.43 ± 0.25 | -2.26 ± 0.23
37 | GCUGAGCAAUAUUACGAUAG | -1.35 ± 0.25 | -1.83 ± 0.26
38 | GAGAAGCAAUAUUACGCCCG | -2.15 ± 0.19 | 0.00226 ± 0.24
39 | AUAGAGCAAUAUUACGAGUU | -2.25 ± 0.13 | -1.33 ± 0.15
40 | UGUUAGCAAUAUUACGGGAC |  | -2.99 ± 0.48
41 | GUUUAGCAAUAUUACGUUCA | -0.239 ± 0.15 | -0.156 ± 0.13
42 | UAAGAGCAAUAUUACGGACU |  | -2.75 ± 0.41
43 | GACGAGCAAUAUUACGGAAG | -2.39 ± 0.23 | -2.5 ± 0.31
44 | CGUGAGCAAUAUUACGCUCG | -2.69 ± 0.26 | -2.64 ± 0.24
45 | AAAUAGCAAUAUUACGCUAU | -2.9 ± 0.18 | -2.22 ± 0.34
46 | CUAAAGCAAUAUUACGGCUU | -3.8 ± 0.21 | -2.44 ± 0.29
47 | AUUAAGCAAUAUUACGCUAG | -1.96 ± 0.16 | -0.736 ± 0.18
48 | GUCCAGCAAUAUUACGCCAU | -2.78 ± 0.15 | -1.48 ± 0.14
49 | AAGGAGCAAUAUUACGAGUC | -3.2 ± 0.47 | -2.05 ± 0.23

Source: the supplement of paper PMC7877785
